The experiment concerns the target Pfs230D1-E2p fusion protein (Pfs230D1-linker-E2p), 60-copy nanoparticle (Plasmodium falciparum (3D7) | Geobacillus stearothermophilus) (UniProt P68874). Kind of experiment: SEC-MALS + other: SEC-SAXS; SIBYLS beamline 12.3.1; the sample was injected into a size-exclusion column and a post-column splitter directed the eluate to the MALS and SAXS systems; molecular weight from Astra 6 (MALS) and PRIMUS/ATSAS (SAXS).

“Pfs230D1-E2p fusion protein (Pfs230D1-linker-E2p), 60-copy nanoparticle (from UniProt P68874 542-736)”: the stoichiometry N (as a rule, the number of molecules, sites or subunits per partner or assembly) amounted to 60.

These data come from publication PMC10439124.
